{"source": "patent US20080279865A1", "about": "“Therapy of Prostate Cancer With Ctla-4 Antibodies and Hormonal Therapy” (Pfizer, Inc., Pfizer Products, Inc., priority 2005, published 2008)", "key": {"prostate cancer": {"tested_on": "prostate cancer", "assay": "Neoadjuvant ticilimumab plus leuprolide and bicalutamide before prostatectomy in high risk prostate cancer", "format": "in vivo, human", "from_the_text": "Patients with prostate cancer who are eligible for radical prostatectomy and who have an intermediate or high risk of recurrence according to current medical standards are candidates for antibody-hormonal combination neoadjuvant therapy. The target population for this study is defined using the risk of biochemical recurrence instead of the probability of pathologically confined cancer. This approach is supported by the observation that patients with disease confined to the prostate may have a biochemical recurrence despite “definitive” local treatment. Therefore, this patient definition is more comprehensive. Considering recent data showing that a time to PSA failure of less than 2 years predicts for distant failure, patients who are at high risk for early PSA failure are candidates for neoadjuvant (and adjuvant) antibody-hormonal combination therapy as disclosed herein.\nPre-operatively, approximately after the end of the last cycle of antibody-hormone combination therapy and prior to scheduled prostatectomy, the following evaluations are completed: any adverse events, ECOG PS, vital signs and weight, physical examination (including signs of autoimmunity), ECG, and DRE. Samples for hematology and chemistry panels, along with PT, APTT, CRP and PSA are obtained.\nPost-operative assessments are performed approximately two weeks following surgery. The evaluation includes physical examination (including autoimmunity), vital signs, ECOG performance status, body weight, hematology, and chemistry panels, PT, APTT, TSH, T3, T4, amylase, lipase, CRP, urinalysis. Additional samples are obtained for autoantibody panel, PSA, testosterone, HAH titer and PK. All patients are assessed for pathological assessment of the surgical specimen and adverse events.\nThe patient is premedicated with antihistamine (H1) at least one half hour prior to infusion of anti-CTLA4, but premedication is not required. Patients were administered leuprolide (LUPRON) and bicalutamide (CASODEX) in combination with an anti-CTLA4 antibody (ticilimumab). More specifically, on day 1 (D1), the patient was administered a single IV infusion (100 mL/hr) of anti-CTLA4 antibody at a dose of 1 mg/kg, 3 mg/kg, or 6 mg/kg, in combination with a 7.5 mg IM injection of leuprolide (LUPRON DEPOT). A minimum of 3 patients were administered each antibody dose. The study was amended to reinitiate dose escalation at a lower dose level, i.e., 1 mg/kg. Three patients received that dose level, and are undergoing surgery (after 3 months of combination therapy). Dose escalation continued to 3 mg/kg. Dose escalation is ongoing at 6 mg/kg and 10 mg/kg.\nBicalutamide (CASODEX) was administered orally, in tablet form, at a dose of 50 mg, once per day for the first fourteen days commencing on day 1 (D1). Preferably, bicalutamide was taken at the same time each day on days D1-D14, and a patient medication diary was used to record any interruption of bicalutamide dosing.\nProphylactic anti-emetics and anti-diarrheals were given as appropriate. The treatment was repeated after 28 days with a […] of antibody and 7.5 mg IM injection of LUPRON DEPOT for a maximum of three cycles (D1, D28, and D56) preceding surgery."}, "[1]": {"assay": "Single agent studies of ticilimumab in melanoma (diarrhea)", "format": "in vivo, human", "from_the_text": "In contrast, in the present study, 2 out of 3 patients treated with the combination of hormonal therapy and CTLA4 blockade had grade 3 diarrhea. […] Diarrhea is considered to be pharmacologically mediated in that it is likely related to the mechanism of action of ticilimumab. […] A possible correlation between tumor response in melanoma and putative “autoimmune breakthrough events” has been reported for single agent CTLA4 blockade in the absence of any other therapy (see Attia et al., J Clin Oncol. 23(25):6043-6053 (2005))."}}}
{"substance": "ticilimumab: human IgG2 anti-CTLA4 antibody; heavy chain SEQ ID NO:26, light chain SEQ ID NO:32", "values": [{"measurement": "diarrhea in a patient", "setting": "prostate cancer; 3 mg/kg ticilimumab and hormonal therapy", "value": "prolonged diarrhea"}, {"measurement": "prostatectomy specimen findings", "setting": "prostate cancer; 6 mg/kg, patient 1005-1004, after three months of antibody therapy and hormonal therapy (leuprolide and bicalutamide), FIG. 4", "value": "detectable tumor regression and signs of an inflammatory infiltrate around tumor cells"}, {"measurement": "patients who experienced diarrhea and did not complete the study", "setting": "prostate cancer; cohort of three patients at 6 mg/kg with hormonal therapy", "value": "two"}, {"measurement": "severity (duration and magnitude) of the diarrhea versus any other study at any dose level", "setting": "prostate cancer; combination of hormonal therapy and CTLA4 blockade", "value": "significantly higher"}, {"measurement": "patients with grade 3 diarrhea", "setting": "prostate cancer; combination of hormonal therapy and CTLA4 blockade, cohort of three patients at 6 mg/kg", "value": "2 out of 3"}, {"measurement": "treatment effect in prostatectomy specimens", "setting": "prostate cancer; several patients treated with 1 mg/kg and 6 mg/kg, with androgen blockade", "value": "regression of carcinoma and benign prostate glandular tissue, lymphocytic infiltrates (see FIG. 4), and signs of acute and chronic inflammation"}, {"measurement": "patients with diarrhea", "setting": "[1]; multiple doses of 6 mg/kg", "value": "none"}, {"measurement": "patients with diarrhea grade 3", "setting": "[1]; single dose of 6 mg/kg", "value": "1 out of three"}]}
